Patent publication US20250250357A1 (NANJING ZAIMING PHARMACEUTICAL, published 2025)
Where a chain is given by its changes, count along the chain named.

T1: monkey MSLN full-length protein (NCBI: XP_028696439.1) expressed on HEK293T-monkey MSLN cells (monkey)
T1 construct: Whole encoded precursor
T1 chain: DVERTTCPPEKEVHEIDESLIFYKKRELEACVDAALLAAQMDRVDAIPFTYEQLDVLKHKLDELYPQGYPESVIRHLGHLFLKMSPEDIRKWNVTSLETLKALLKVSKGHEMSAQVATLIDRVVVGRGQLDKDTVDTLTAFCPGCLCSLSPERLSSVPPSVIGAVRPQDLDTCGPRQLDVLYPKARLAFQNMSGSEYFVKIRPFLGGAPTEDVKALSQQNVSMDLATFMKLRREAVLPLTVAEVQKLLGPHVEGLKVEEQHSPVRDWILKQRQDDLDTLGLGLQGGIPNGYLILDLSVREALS

B1: S009-F1.25.10 (antibody, human IgG1, kappa, V domains shown)
VH: EVQLQQSGPELVKPGASLKISCKASGYSFTDYTMNWVKQSHGKNLEWIGLFNPYNGGISYNQKFKGKATLTVDKSSNTAYMELLSLTSDDSAVYFCARDGRGGFYAMDYWGQGTSVTVSS
VL: DIQMTQTTSSLSASLGDRVTISCRASQDISIYLNWYQQKPDGPVKLLIYYTSRLHSGVPSRFSGSGSGTDFSLTISNLEQEDIATYFCQQGYTLPPWTFGGGTKLEIKR
notes: Human-murine chimeric antibody, human IgG1/kappa constant regions
B2: S009-F1.35.24 (antibody, human IgG1, kappa, V domains shown)
VH: EVQLQQSEPELVKPGASVRISCKASGYSFTDYYMHWVKQSPENRLEWIGEINPSTGGTSYNPKFKDKATLTVDKSSSTAYMQLKSLTSEESAVYYCTRYHYYGSSSYVMDYWGQGTSVTVSS
VL: QIVLTQSPAILSASPGERVTMTCSASSSVYHMHWFQQKSGTSPKRWVYDTSKLASGVPARFSGSGSGTSYSLTISSMEAEDAATYYCQHWRTNPLTFGAGTKLELKR
notes: as for B1
B3: S009-F7.26.15 (antibody, human IgG1, kappa, V domains shown)
VH: DVQLQESGPGLVKPSQTVFLTCTVTGISITTGNYRWSWIRQFPGNKLEWIGYIYYTGFITYNPSLTSRTTITRDTPKNQFFLEMKSLTAEDTATYYCARDDYDYDVFAYWGQGTLVTVSA
VL: DIQMTQSPASLSASVGETVTITCRASGNIHNYLAWYHQKQGKSPQFLVYKAKTLADGVPSRFSGSGSGTQYSLKINRLQPEDFGSYYCQHFLSIPLTFGAGTKLELKR
notes: human-murine chimeric antibody, human IgG1/kappa constant regions
B4: S009-F7.18.10 (antibody, human IgG1, kappa, V domains shown)
VH: QVQLQQSGAELVRPGTSVKVSCKASGYAFTNYLIEWVKQRPGQGLEWIGVINPGSGGTKYNEKFKGKATLTADKSSSTAYMQLSSLTSEDSAVYFCASDYDYDPFAYWGQGTLVTVSA
VL: DIVMTQSHKFMSTSVGDRVSITCKASQDVSTAVAWYQRKPGQSPKLLIYWASTRHTGVPDRFTGSGSGTDYTLTISYMQAEDLALYYCQQHYSTPYTFGGGTKLEIKR
notes: as for B3
B5: S009-F7.2.3 (antibody, human IgG1, kappa, V domains shown)
VH: ELQLVESGGDLVKPGGSLKLSCAASGFTFSSNGMSWLRQTPDKRLEWVATISSGGRYTYYPDSVKGRFTISRDNAKNTLYLQMSSLKSEDTAMYYCARRGIYDYFDCWGQGTTLTVSS
VL: DIQMTQSPASLSISVGETVTITCRASENIHSSLAWYQQKQGKSPQLLVYAATNLADGVPSRFSGSGSGSQYSLKINSLQSEDFGTYYCQHFWGTPWTFGGGTKLDIKR
notes: as for B3
B6: S009-F7.21.16 (antibody, human IgG1, kappa, V domains shown)
VH: QVQLQQPGTELVKPGASVKLSCKASGYTFTTFWMHWVKQRPGQGLEWIGGVNPTNGGTNYNEKFRTKATLTVDKSSTTADMQLSSLTSEDSAVYYCAPHYISSRPGFAYWGQGTLVTVSG
VL: DIVMTQSQKFMSTSGGDRVSVTCKASQNVGTNVAWYQQKPGQSPKALIYSASYRYSGVPDRFTGSGSGTDFILTISNVQSEDLAEYFCQQYNSYPLTFGGGTKLEIKR
notes: as for B3
B7: S009-F7.30.5 (antibody, human IgG1, kappa, V domains shown)
VH: QVQLQQPKTELVKPGASVKLSCKASGYIFTTYWMHWVKQRPGQGLEWIGNVNPSNGGTMYNEKFERRATLTVDKSSSTADMQLSSLTSEDSAVYYCVPHYIGSRPGFAYWGQGTLVTVSG
VL: B6 VL with G15V, Q38H, I48L, I72T, S76T
notes: as for B3
B8: S009-F7.25.19 (antibody, human IgG1, kappa, V domains shown)
VH: QVQLQQPGTELVKPGASVKLSCKASGYTFTSYWMHWVKQRPGQGLEWIGNIIPSNGGTKYNEKFKSKATLTVDKSSSTAYMQLSSLTSEDSAVYYCSPHYYGGSPGFAYWGQGTLITVSA
VL: B6 VL with G15V, T22I, I72T
notes: as for B3
B9: S009-F7.6.17 (antibody, human IgG1, kappa, V domains shown)
VH: QVQLQQSGAELARPGASVKMSCKASGYTFTTYTMHWVKQRPGQGLEWIGYISPTGDFTKYNQKFKDKATLTTDKSSNTAFMQLSSLTSEDSAVYYCARWNGTVWFAYWGQGTLVTVSA
VL: DIVMTQSQKFMSTSVGDRVTVTCKASQALGTNVAWYQQKPGQSPKVLIYSASYRYSGVPYRFAGGGSGTDFTLTITNVQSEDLAEYFCQQYNNYPLTFGAGTKLELKR
notes: as for B3
B10: S009-F7.23.19 (antibody, human IgG1, kappa, V domains shown)
VH: EVKLVESGGGLVQPGGSLSLSCAASGFTFTDYYMSWVRQPPGKALEWLGFIRSKANAYTTEYSASVKGRFTISRDNSQSILYLQMNDLRAEDSATYYCARYYYYGSGYVWYFDVWGTGTTVTVSS
VL: B6 VL with G15V, N28S, S43F, I72T, S76I, G100A, I106L
notes: as for B3
B11: S009-F7.11.11 (antibody, human IgG1, kappa, V domains shown)
VH: EVQLQQSGPELVKPGASVKIPCKASGYTITDYNMDWVKQSRGKSLEWIGDVFPYNGDSIYNQKFEGRATLTVDKYSSTAYMELRGLTSEDTAVYFCARRKTGTGYFDVWGTGTTVTVSS
VL: QLVLTQSPAIMSASPGEKVTLTCSASSSVSSTYLSWYLQKPGSSPKLWIYSTSNLASGVPARFSGSGSGTSYSLTISSMEAEDAASYFCHQWSSYPYTFGGGTKLEIKR
notes: as for B3
B12: S009-F7.12.13 (antibody, human IgG1, kappa, V domains shown)
VH: EVQLQQSGPELVKPGASVKIPCKASGYTFTDYNMDWVKQSHGKGLEWIGDINPNTDDTIYNQKFNGKATLTVDKSSSTAYMELRSLTSEDTAVYYCSRRLIGTGYFDVWGTGTTVTVSS
VL: B11 VL with L2I, S30I, S35C, L38R, K46E, S94N, E106G, I107M
notes: as for B3
B13: Tab106 (YP218, hIgG1) (antibody, V domains shown)
VH: QQQLEESGGGLVKPEGSLTLTCKASGFDLGFYFYACWVRQAPGKGLEWIACIYTAGSGSTYYASWAKGRFTISKASSTTVTLQMTSLAAADTATYFCARSTANTRSTYYLNLWGPGTLVTVSS
VL: DVVMTQTPASVSEPVGGTVTIKCQASQRISSYLSWYQQKPGQRPKLLIFGASTLASGVPSRFKGSGSGTEYTLTISDLECADAATYYCQSYAYFDSNNWHAFGGGTEVVVRT
notes: control antibody; YP218 VH and VL in human IgG1 CH and CL vectors; also called YP218 human IgG1 antibody

Biological target: T2, human MSLN-R3-3 polypeptide (human)
T2 construct: also called human MSLN-R3-3 protein; hMSLN-R3-3
Test: ELISA, coated MSLN-R3-3;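 further: chimeric antibodies in serial dilution bound to plate-coated antigen for 2 h at 37 °C, with a negative control antibody alongside, and TMB colour development stopped with HCl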
Experimental: The plate was sealed with a plastic film and incubated at 4° C. overnight. The next day, the plate was washed twice with PBST, and a blocking buffer [PBS+2% (w/w) BSA] was added for blocking at room temperature for 2 h. The blocking buffer was discarded, and a chimeric antibody or negative control antibody serially diluted from 100 nM was added at 50 μL/well. After incubation at 37° C. for 2 h, the plate was washed 3 times with PBST. […] After incubation at 37° C. for 2 h, the plate was washed 5 times with PBST. A TMB substrate was added at 50 μL/well for incubation at room temperature for 5-10 min, and then a stop solution (1.0 N HCl) was added at 50 μL/well.

OD450 at 0.0001 nM	OD450 at 0.001 nM	OD450 at 0.01 nM	OD450 at 0.1 nM	OD450 at 1 nM	OD450 at 10 nM	OD450 at 100 nM	OD450 at none (no antibody)	Binder
0.07 OD450	0.13 OD450	0.59 OD450	1.82 OD450	2.17 OD450	2.41 OD450	2.78 OD450	0.07 OD450	B1
0.07 OD450	0.07 OD450	0.07 OD450	0.08 OD450	0.07 OD450	0.07 OD450	0.15 OD450	0.07 OD450	B2

Biological target: T3, human MSLN-R2-his protein (human, UniProt Q13421 391-486)
T3 construct: Region 2 of human MSLN, His-tagged; also called human MSLN-R2 protein; hMSLN-R2-his; not shown: His tag
Test: ELISA, coated MSLN-R2;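 further: chimeric antibodies bound to blocked coated plates for 2 h at 37 °C, TMB colour development stopped with HCl, with a negative control antibody for comparison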

T3 sequence (Q13421 other isoform, or with tags, fused parts or gaps): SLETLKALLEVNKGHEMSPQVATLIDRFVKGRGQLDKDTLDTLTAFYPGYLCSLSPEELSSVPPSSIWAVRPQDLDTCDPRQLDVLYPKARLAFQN

OD450 at 0.0001 nM	OD450 at 0.001 nM	OD450 at 0.01 nM	OD450 at 0.1 nM	OD450 at 1 nM	OD450 at 10 nM	OD450 at 100 nM	OD450 at none (no antibody)	Binder
0.04 OD450	0.04 OD450	0.04 OD450	0.04 OD450	0.04 OD450	0.05 OD450	0.05 OD450	0.05 OD450	B1
0.04 OD450	0.05 OD450	0.05 OD450	0.04 OD450	0.05 OD450	0.05 OD450	0.06 OD450	0.05 OD450	B2

Biological target: T4, human MSLN-R3 protein (Met487-Ser606 of NCBI AAH09272.1) expressed on HEK293T-hMSLN-R3 cells (human, UniProt Q13421 487-606)
T4 construct: also called Region3
Test: FACS on HEK293T-hMSLN-R3 cells;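 on result: flow cytometry binding of test chimeric antibodies to cells after 2 h incubation on ice, with values derived from the mean fluorescence intensity of the cells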
Experimental: (§1) The desired cells were expanded to the logarithmic growth phase in a T-75 cell culture flask. […] After the cells from the previous step were subjected to cell counting, the cell pellet was resuspended to 2×10⁶ cells/mL in a blocking buffer of [PBS+2% (w/w) BSA] and added into a 96-well FACS reaction plate at 50 μL/well. A chimeric antibody (a sample to be tested) was added at 50 μL/well, and the plate was incubated on ice for 2 h. […] After the plate was centrifuged and washed 5 times with a PBST buffer, assay and analysis were performed by FACS (FACS CantoII, purchased from BD). Data analysis was performed by software (Flowjo) to obtain the mean fluorescence intensity (MFI) of the cells.

T4 sequence (Q13421 495-614): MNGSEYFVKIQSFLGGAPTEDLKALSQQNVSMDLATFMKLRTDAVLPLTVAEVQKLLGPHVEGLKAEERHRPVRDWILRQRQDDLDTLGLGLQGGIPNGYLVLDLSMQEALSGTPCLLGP

EC50	Maximum mean fluorescence intensity	binding result	Binder
0.09 nM	6940		B3
	39	no binding	B4
	33	no binding	B5
0.16 nM	6820		B6
0.24 nM	6160		B7
0.06 nM	5350		B8
0.31 nM	6420		B9
0.05 nM	6570		B10
0.28 nM	6260		B11
0.12 nM	6610		B12

Biological target: T5, human MSLN-R3-his protein (human, UniProt Q13421 487-598)
T5 construct: Region 3 of human MSLN, His-tagged; also called human MSLN-R3 protein; hMSLN-R3-his; not shown: His tag
Test: ELISA, coated MSLN-R3

T5 sequence (Q13421 495-606): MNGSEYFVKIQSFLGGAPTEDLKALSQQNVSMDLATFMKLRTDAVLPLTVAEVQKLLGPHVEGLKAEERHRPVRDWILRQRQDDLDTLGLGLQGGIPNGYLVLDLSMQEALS

OD450 at 0.0001 nM	OD450 at 0.001 nM	OD450 at 0.01 nM	OD450 at 0.1 nM	OD450 at 1 nM	OD450 at 10 nM	OD450 at 100 nM	OD450 at none (no antibody)	Binder
0.05 OD450	0.05 OD450	0.09 OD450	0.34 OD450	1.44 OD450	2.07 OD450	2.81 OD450	0.05 OD450	B1
0.05 OD450	0.05 OD450	0.05 OD450	0.05 OD450	0.05 OD450	0.05 OD450	0.06 OD450	0.05 OD450	B2

Biological target: T6, human MSLN protein endogenously expressed on OVCAR3 tumor cells (human, UniProt Q13421 296-598)
T6 construct: whole, on cells; Endogenous target on OVCAR3 cells; kept apart from the recombinant full-length construct; also called mesothelin
Test: FACS on OVCAR3 cells;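 further: flow cytometry binding of test antibodies to cells, 2 h incubation on ice, readout as cell mean fluorescence intensity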
Experimental: as §1

T6 sequence (Q13421 other isoform, or with tags, fused parts or gaps): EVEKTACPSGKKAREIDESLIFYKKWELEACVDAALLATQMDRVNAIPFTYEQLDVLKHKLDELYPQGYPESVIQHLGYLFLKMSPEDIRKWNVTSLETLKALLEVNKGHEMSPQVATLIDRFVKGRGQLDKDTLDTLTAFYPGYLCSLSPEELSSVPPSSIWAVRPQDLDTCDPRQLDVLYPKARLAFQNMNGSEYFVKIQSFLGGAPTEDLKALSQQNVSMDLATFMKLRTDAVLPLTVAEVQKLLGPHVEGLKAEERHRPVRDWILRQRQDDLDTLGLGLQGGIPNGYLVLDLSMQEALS

EC50	Maximum mean fluorescence intensity	Binder
0.2 nM	16200	B3
3.29 nM	29900	B4
1.74 nM	22800	B5
0.52 nM	32600	B6
0.66 nM	31800	B7
0.18 nM	24200	B8
0.99 nM	31800	B9
0.15 nM	29300	B10
0.86 nM	31800	B11
0.32 nM	21400	B12

Biological target: T1, monkey MSLN full-length protein (NCBI: …)
Test: FACS on HEK293T-monkey MSLN cells;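 further: flow cytometry binding of chimeric antibodies to the cells, with a 2 h incubation on ice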
Experimental: as §1

Maximum mean fluorescence intensity	binding result	EC50	Binder
108	no binding		B3
50600		0.47 nM	B4
50900		0.3 nM	B6
47400		0.34 nM	B7
43200		~0.16 nM	B8
56100		0.7 nM	B9
54300		0.13 nM	B10
49500		0.41 nM	B11
7630		6.34 nM	B12

Biological target: T7, human MSLN-R3 protein expressed on HEK293T cells (HEK293T-hMSLN-R3) (human, UniProt Q13421 487-606)
T7 construct: C-terminal limit uncertain
Test: FACS on HEK293T-hMSLN-R3 cells;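 on result: flow cytometry binding of test chimeric antibodies to cells after 2 h incubation on ice, with values derived from the mean fluorescence intensity of the cells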

T7 sequence (Q13421 495-614): as the sequence (Q13421 495-614) above

EC50	Maximum mean fluorescence intensity	Binder
1 nM	24500	B13
